{"source": "paper PMC6447637", "key": {"[1]": {"biological_target": "NaV1.4 CTerm Long (residues 1599–1764), freed of CaM for ITC (human) (UniProt P35499)", "assay": "ITC; Ca2+-saturating: CTerm (2–25 µM) in the sample cell, CaM, CaM12 or CaM34 (30–1000 µM) as titrant; 20 mM MOPS, 150 mM NaCl, 1 mM MgCl2, 50 µM EGTA with 1 mM CaCl2; VP-ITC, single binding site fit, one replicate"}, "[2]": {"biological_target": "NaV1.4 CTerm Short (residues 1599–1754), freed of CaM for ITC (human) (UniProt P35499)", "assay": "ITC; Ca2+-saturating: CTerm (2–25 µM) in the sample cell, CaM, CaM12 or CaM34 (30–1000 µM) as titrant; 20 mM MOPS, 150 mM NaCl, 1 mM MgCl2, 50 µM EGTA with 1 mM CaCl2; VP-ITC, single binding site fit, one replicate"}, "[3]": {"biological_target": "NaV1.5 CTerm Long (not stated (human or rat cDNA cloned))", "assay": "ITC; Ca2+-saturating: CTerm (2–25 µM) in the sample cell, CaM, CaM12 or CaM34 (30–1000 µM) as titrant; 20 mM MOPS, 150 mM NaCl, 1 mM MgCl2, 50 µM EGTA with 1 mM CaCl2; VP-ITC, single binding site fit, one replicate"}, "[4]": {"biological_target": "NaV1.5 CTerm Long (not stated (human or rat cDNA cloned))", "assay": "ITC; Ca2+-free: CTerm (2–25 µM) in the sample cell, CaM (30–1000 µM) as titrant; 20 mM MOPS, 150 mM NaCl, 1 mM MgCl2, 50 µM EGTA; VP-ITC, single binding site fit, one replicate"}, "[5]": {"biological_target": "NaV1.5 CTerm Long (not stated (human or rat cDNA cloned))", "assay": "ITC; Ca2+-saturating: CTerm (2–25 µM) in the sample cell, CaM, CaM12 or CaM34 (30–1000 µM) as titrant; 20 mM MOPS, 150 mM NaCl, 1 mM MgCl2, 50 µM EGTA with 1 mM CaCl2; VP-ITC, single binding site fit, one replicate", "remark": "listed apart in the source"}}}
{"substance": "CaM34 (D93A, D129A; C lobe Ca^2+ binding disabled) (natural protein)", "values": [{"measurement": "Kd", "setting": "[1]", "result": 121, "unit": "nM"}, {"measurement": "Kd", "setting": "[2]", "result": 282, "unit": "nM"}, {"measurement": "Kd", "setting": "[3]", "result": 90, "unit": "nM"}]}
{"substance": "CaM12 (D20A, D56A; N lobe Ca^2+ binding disabled) (natural protein)", "values": [{"measurement": "Kd", "setting": "[1]", "result": 154, "unit": "nM"}, {"measurement": "Kd", "setting": "[2]", "result": 156, "unit": "nM"}, {"measurement": "Kd", "setting": "[3]", "result": 3600, "unit": "nM"}]}
{"substance": "calmodulin (full-length mammalian calmodulin, R. norvegicus CALM2) (from UniProt P0DP30 1-149) (natural protein)", "values": [{"measurement": "Kd", "setting": "[4]", "result": 48, "unit": "nM"}, {"measurement": "Kd", "setting": "[3]", "result": 89, "unit": "nM"}, {"measurement": "Kd", "setting": "[5]", "result": 70, "unit": "nM"}]}
